Experiments:
[1] = biological target: T1, recombinant FZD7 Fc protein (Biacore) (Homo sapiens (Human), UniProt O75084 33-255, limits assumed); test: SPR, Biacore 2000; Fzd Fc immobilized on CM5 chip, IgG 100 to 0.78 nM in solution
T1 construct: also called Fzd Fc; not shown: Fc part, not described
Method: (§1) The KDs of 18R8 and 18R5 antibodies were determined using the Biacore 2000 system from Biacore Lifescience (GE Healthcare). Specifically, purified anti-Fzd7 antibodies were serially diluted in 2-fold increments from 100 to 0.78 nM in HBS-P (0.01 M HEPES pH 7.4, 0.15 M NaCl, 0.005% v/v Surfactant P20). Each dilution was tested against recombinant Fzd Fc proteins immobilized onto a CM5 Biacore chip. The association and dissociation rates were measured and KD values determined using the Biaevaluation software program (Table 5, below).

[2] = biological target: T2, recombinant FZD1 Fc protein (Biacore) (Homo sapiens (Human), UniProt Q9UP38 70-321, limits assumed); test: as above
T2 construct: also called Fzd Fc; not shown: Fc part, not described
T2 sequence (Q9UP38 70-321 limits assumed): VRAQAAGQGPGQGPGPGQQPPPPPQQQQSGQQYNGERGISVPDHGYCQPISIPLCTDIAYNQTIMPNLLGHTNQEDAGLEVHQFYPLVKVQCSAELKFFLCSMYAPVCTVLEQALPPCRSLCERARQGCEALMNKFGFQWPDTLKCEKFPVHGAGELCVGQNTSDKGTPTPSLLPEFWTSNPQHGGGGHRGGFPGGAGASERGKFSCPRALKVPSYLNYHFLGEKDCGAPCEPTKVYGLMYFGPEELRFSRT
Method: as §1

FZD5-Fc = biological target: T3, FZD5-Fc (Homo sapiens (Human), UniProt Q13467 27-233, limits assumed); test: as above
T3 construct: also called recombinant FZD5 Fc protein; not shown: Fc part, not described
T3 sequence: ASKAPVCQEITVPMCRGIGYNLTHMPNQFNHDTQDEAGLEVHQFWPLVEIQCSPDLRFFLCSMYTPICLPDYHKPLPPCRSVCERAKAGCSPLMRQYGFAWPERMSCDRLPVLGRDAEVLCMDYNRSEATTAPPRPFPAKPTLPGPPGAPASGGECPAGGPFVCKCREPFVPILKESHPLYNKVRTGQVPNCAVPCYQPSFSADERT
Method: as §1

[3] = biological target: T4, recombinant FZD2 Fc protein (Biacore) (Homo sapiens (Human), UniProt Q14332 24-250, limits assumed); test: as above
T4 construct: also called Fzd Fc; not shown: Fc part, not described
T4 sequence (Q14332 24-250 limits assumed): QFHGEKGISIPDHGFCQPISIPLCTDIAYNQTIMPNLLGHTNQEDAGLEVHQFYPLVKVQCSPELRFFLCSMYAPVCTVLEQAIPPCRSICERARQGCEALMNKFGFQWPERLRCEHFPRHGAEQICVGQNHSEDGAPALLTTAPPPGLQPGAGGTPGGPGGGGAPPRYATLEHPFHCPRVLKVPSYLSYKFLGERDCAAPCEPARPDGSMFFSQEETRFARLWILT
Method: as §1

[4] = biological target: T5, human FZD4 expressed on transfected HEK293 cells (human, UniProt Q9ULV1 37-537); test: flow cytometry, HEK293 cells transiently co-transfected with FZD expression vector and GFP
T5 sequence: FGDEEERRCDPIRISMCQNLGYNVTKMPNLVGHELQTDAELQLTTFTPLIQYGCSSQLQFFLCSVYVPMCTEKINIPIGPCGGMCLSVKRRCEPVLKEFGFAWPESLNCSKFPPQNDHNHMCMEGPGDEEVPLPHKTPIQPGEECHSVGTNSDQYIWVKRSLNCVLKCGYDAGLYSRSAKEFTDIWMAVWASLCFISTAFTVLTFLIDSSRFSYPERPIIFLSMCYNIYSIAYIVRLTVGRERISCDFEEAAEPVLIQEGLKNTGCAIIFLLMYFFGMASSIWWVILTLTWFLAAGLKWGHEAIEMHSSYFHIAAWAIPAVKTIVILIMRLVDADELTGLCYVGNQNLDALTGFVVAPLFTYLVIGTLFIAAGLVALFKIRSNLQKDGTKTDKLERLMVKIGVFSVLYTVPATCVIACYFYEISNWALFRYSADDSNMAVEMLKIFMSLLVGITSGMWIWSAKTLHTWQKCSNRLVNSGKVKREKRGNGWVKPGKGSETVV
Method: (§2) To measure antibody binding to FZD by flow cytometry HEK293 cells were co-transfected with FZD expression vectors and the transfection marker GFP. Twenty-four to forty-eight hours post-transfection, cells were collected in suspension and incubated on ice with anti-FZD antibodies (10 μg/ml unless otherwise indicated) or control IgG to detect background antibody binding. The cells were washed and primary antibodies detected with Fc domain-specific secondary antibodies conjugated to a fluorescent chromophore (e.g. phycoerythrin conjugated anti-human IgG). Labeled cells were then analyzed by flow cytometry to identify anti-FZD antibodies that specifically recognize cell surface expression of FZD protein. Monoclonal antibodies 18R5 and 18R8 recognized FZD on transfected cells. As shown in FIG. 1 and FIG. 2, both 18R8 and 18R5 bind to multiple FZD including FZD1, FZD2, FZD5, FZD7, and FZD8. To examine the relative ability of 18R8 and 18R5 to bind to each FZD protein, titration analysis was conducted wherein the amount of antibody in the binding reaction was varied (FIG. 2).

[5] = biological target: T6, human FZD9 expressed on transfected HEK293 cells (human, UniProt O00144 23-591); test: as above
T6 sequence: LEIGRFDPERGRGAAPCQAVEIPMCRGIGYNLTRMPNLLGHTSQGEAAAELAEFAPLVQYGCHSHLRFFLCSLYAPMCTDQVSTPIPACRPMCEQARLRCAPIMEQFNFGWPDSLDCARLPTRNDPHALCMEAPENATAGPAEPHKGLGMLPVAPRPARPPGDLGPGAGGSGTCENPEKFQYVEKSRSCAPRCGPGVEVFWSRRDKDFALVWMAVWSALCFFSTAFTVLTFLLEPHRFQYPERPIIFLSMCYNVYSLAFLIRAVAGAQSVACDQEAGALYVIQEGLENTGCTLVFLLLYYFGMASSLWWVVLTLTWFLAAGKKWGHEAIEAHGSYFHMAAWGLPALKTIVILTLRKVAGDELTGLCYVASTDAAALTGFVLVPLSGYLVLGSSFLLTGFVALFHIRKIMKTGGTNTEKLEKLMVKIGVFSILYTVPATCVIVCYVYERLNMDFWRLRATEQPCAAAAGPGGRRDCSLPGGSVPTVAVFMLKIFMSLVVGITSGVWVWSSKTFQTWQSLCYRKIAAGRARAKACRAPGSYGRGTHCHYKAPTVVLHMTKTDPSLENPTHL
Method: as §2

Kd [1]: 5.2 nM | Kd [2]: 15.6 nM | Kd (FZD5-Fc): 4.2 nM | Kd [3]: 6.2 nM | binding result [4]: no binding (tested: 10 ug/ml) | binding result [5]: no binding (tested: 10 ug/ml)
B1: 18R8 IgG antibody (human IgG2, lambda) (antibody, V domains shown)
VH: EVQLVESGGGLVQPGGSLRLSCAASGFTFSHYTLSWVRQAPGKGLEWVSVISGDGSYTYYADSVKGRFTISSDNSKNTLYLQMNSLRAEDTAVYYCARNFIKYVFANWGQGTLVTVSS
VL: DIELTQPPSVSVAPGQTARISCSGDKLGKKYASWYQQKPGQAPVLVIYEKDNRPSGIPERFSGSNSGNTATLTISGTQAEDEADYYCSSFAGNSLEVFGGGTKLTVLG
notes: Expressed in CHO cells, protein A purified; also called 18R8 IgG2 antibody; anti-FZD antibody 18R8

— patent US20130295106A1 (ONCOMED PHARMACEUTICALS, published 2013)
